Measured values as given in patent US20090280138A1 (OXFORD BIOMEDICA UK, published 2009).

Molecular target: T1, MHC class I molecule B*0702 (biotin (bound to streptavidin-coated plate))
T1 construct: also called B7; HLA-B7
Experiment: iTopia iScore
Procedure, shortened: (§1)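 9-mer peptides were tested on plates coated with MHC molecules, measuring binding, off-rate and affinity by ELISA in duplicate with allele-specific positive controls.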

Binder | iScore
VLAQLPSLR [5T4 9-mer peptide 115 VLAQLPSLR] | 0
LPRDVLAQL [5T4 9-mer peptide 113 LPRDVLAQL] | 0.305
SLRHLDLSN [5T4 9-mer peptide 118 SLRHLDLSN] | 0
AQLPSLRHL [5T4 9-mer peptide 116 AQLPSLRHL] | 0
RDVLAQLPS [5T4 9-mer peptide 114 RDVLAQLPS] | 0
RHLDLSNNS [5T4 9-mer peptide 119 RHLDLSNNS] | 0

Molecular target: T2, MHC class I molecule A*0101 (biotin (bound to streptavidin-coated plate))
T2 construct: also called A1; HLA-A1
Experiment: iTopia iScore
Procedure, shortened: as §1

Binder | iScore
VLAQLPSLR [5T4 9-mer peptide 115 VLAQLPSLR] | 0
LPRDVLAQL [5T4 9-mer peptide 113 LPRDVLAQL] | 0
SLRHLDLSN [5T4 9-mer peptide 118 SLRHLDLSN] | 0
AQLPSLRHL [5T4 9-mer peptide 116 AQLPSLRHL] | 0
RDVLAQLPS [5T4 9-mer peptide 114 RDVLAQLPS] | 0
RHLDLSNNS [5T4 9-mer peptide 119 RHLDLSNNS] | 0

Molecular target: T3, MHC class I molecule A*0201 (biotin (bound to streptavidin-coated plate))
T3 construct: also called A2; HLA-A2
Experiment: iTopia iScore
Procedure, shortened: as §1

Binder | iScore
VLAQLPSLR [5T4 9-mer peptide 115 VLAQLPSLR] | 0.113
LPRDVLAQL [5T4 9-mer peptide 113 LPRDVLAQL] | 0
SLRHLDLSN [5T4 9-mer peptide 118 SLRHLDLSN] | 0.03
AQLPSLRHL [5T4 9-mer peptide 116 AQLPSLRHL] | 0.162
RDVLAQLPS [5T4 9-mer peptide 114 RDVLAQLPS] | 0
RHLDLSNNS [5T4 9-mer peptide 119 RHLDLSNNS] | 0.029

Molecular target: T4, MHC class I molecule A*0301 (biotin (bound to streptavidin-coated plate))
T4 construct: also called A3; HLA-A3
Experiment: iTopia iScore
Procedure, shortened: as §1

Binder | iScore
VLAQLPSLR [5T4 9-mer peptide 115 VLAQLPSLR] | 0.023
LPRDVLAQL [5T4 9-mer peptide 113 LPRDVLAQL] | 0
SLRHLDLSN [5T4 9-mer peptide 118 SLRHLDLSN] | 0
AQLPSLRHL [5T4 9-mer peptide 116 AQLPSLRHL] | 0
RDVLAQLPS [5T4 9-mer peptide 114 RDVLAQLPS] | 0
RHLDLSNNS [5T4 9-mer peptide 119 RHLDLSNNS] | 0

Molecular target: T5, MHC class I allele A*0201 monomer (human, biotinylated, bound to streptavidin-coated plate)
T5 construct: also called A2; HLA-A2
Experiment: iTopia, multiparametric iScore
Experimental: (§2) The 9 mers were tested for Peptide Binding, Off Rate and Affinity using iTopia Epitope Discovery System in accordance with the manufacturer's instructions. Briefly, 96 well microtitre plates coated with MHC molecules representing different MHC alleles are used to identify candidate peptides. […] Determinations are performed in duplicate using an ELISA plate reader and included allele specific positive controls.
(§3) Finally, multiparametric analysis is performed on the results from these assays and an iScore is generated. The iScore represents a measure of the overall quality of peptide-MHC binding, enabling candidate peptides to be ranked in order of binding quality and allowing rational prioritisation of peptides for functional cellular follow-up studies.

Binder | iScore
RNLTHLESL [5T4 9-mer peptide 128] | 0.072
LDLSNNSLV [5T4 9-mer peptide 120] | 0.156
HLESLHLED (also called HLESLHLED) [5T4 9-mer peptide 130] | 0
LQGLPHIRV [5T4 9-mer peptide 141] | 0.2
LHNGTLAEL [5T4 9-mer peptide 137] | 0.187
LHLEDNALK [5T4 9-mer peptide 132] | 0
VFLDNNPWV [5T4 9-mer peptide 145] | 0.239
SFRNLTHLE [5T4 9-mer peptide 127] | 0
VCDCHMADM [5T4 9-mer peptide 149] | 0.061
IRVFLDNNP [5T4 9-mer peptide 144] | 0
LTHLESLHL [5T4 9-mer peptide 129] | 0.143
ALKVLHNGT [5T4 9-mer peptide 135] | 0.104
SLVSLTYVS [5T4 9-mer peptide 123] | 0.206
NGTLAELQG [5T4 9-mer peptide 138] | 0
MVTWLKETE [5T4 9-mer peptide 153] | 0.051
AELQGLPHI [5T4 9-mer peptide 140] | 0
ADMVTWLKE [5T4 9-mer peptide 152] | 0
LSNNSLVSL [5T4 9-mer peptide 121] | 0.116
TLAELQGLP [5T4 9-mer peptide 139] | 0.083
KVLHNGTLA [5T4 9-mer peptide 136] | 0.15
NNPWVCDCH [5T4 9-mer peptide 147] | 0
NNSLVSLTY [5T4 9-mer peptide 122] | 0
LDNNPWVCD [5T4 9-mer peptide 146] | 0
LEDNALKVL [5T4 9-mer peptide 133] | 0.122
PWVCDCHMA [5T4 9-mer peptide 148] | 0
ESLHLEDNA [5T4 9-mer peptide 131] | 0
VSLTYVSFR [5T4 9-mer peptide 124] | 0
DNALKVLHN [5T4 9-mer peptide 134] | 0
PHIRVFLDN [5T4 9-mer peptide 143] | 0
DCHMADMVT [5T4 9-mer peptide 150] | 0

Molecular target: T6, MHC class I allele A*0301 monomer (human, biotinylated, bound to streptavidin-coated plate)
T6 construct: also called A3; HLA-A3
Experiment: iTopia, multiparametric iScore
Experimental: as §2, §3

Binder | iScore
RNLTHLESL [5T4 9-mer peptide 128] | 0
LDLSNNSLV [5T4 9-mer peptide 120] | 0
HLESLHLED (also called HLESLHLED) [5T4 9-mer peptide 130] | 0
LQGLPHIRV [5T4 9-mer peptide 141] | 0
LHNGTLAEL [5T4 9-mer peptide 137] | 0
LHLEDNALK [5T4 9-mer peptide 132] | 0
VFLDNNPWV [5T4 9-mer peptide 145] | 0
SFRNLTHLE [5T4 9-mer peptide 127] | 0
VCDCHMADM [5T4 9-mer peptide 149] | 0
IRVFLDNNP [5T4 9-mer peptide 144] | 0
LTHLESLHL [5T4 9-mer peptide 129] | 0
ALKVLHNGT [5T4 9-mer peptide 135] | 0
SLVSLTYVS [5T4 9-mer peptide 123] | 0
NGTLAELQG [5T4 9-mer peptide 138] | 0
MVTWLKETE [5T4 9-mer peptide 153] | 0
AELQGLPHI [5T4 9-mer peptide 140] | 0
ADMVTWLKE [5T4 9-mer peptide 152] | 0
LSNNSLVSL [5T4 9-mer peptide 121] | 0
TLAELQGLP [5T4 9-mer peptide 139] | 0
KVLHNGTLA [5T4 9-mer peptide 136] | 0
NNPWVCDCH [5T4 9-mer peptide 147] | 0.051
NNSLVSLTY [5T4 9-mer peptide 122] | 0
LDNNPWVCD [5T4 9-mer peptide 146] | 0
LEDNALKVL [5T4 9-mer peptide 133] | 0
PWVCDCHMA [5T4 9-mer peptide 148] | 0
ESLHLEDNA [5T4 9-mer peptide 131] | 0
VSLTYVSFR [5T4 9-mer peptide 124] | 0.025
DNALKVLHN [5T4 9-mer peptide 134] | 0
PHIRVFLDN [5T4 9-mer peptide 143] | 0
DCHMADMVT [5T4 9-mer peptide 150] | 0

Molecular target: T7, MHC class I allele A*0101 monomer (human, biotinylated, bound to streptavidin-coated plate)
T7 construct: placeholder peptide and b2M removed, then reconstituted with test peptide and fresh b2M; also called A1; HLA-A1
Experiment: iTopia, multiparametric iScore
Experimental: as §2, §3

Binder | iScore
RNLTHLESL [5T4 9-mer peptide 128] | 0
LDLSNNSLV [5T4 9-mer peptide 120] | 0
HLESLHLED (also called HLESLHLED) [5T4 9-mer peptide 130] | 0
LQGLPHIRV [5T4 9-mer peptide 141] | 0
LHNGTLAEL [5T4 9-mer peptide 137] | 0
LHLEDNALK [5T4 9-mer peptide 132] | 0
VFLDNNPWV [5T4 9-mer peptide 145] | 0
SFRNLTHLE [5T4 9-mer peptide 127] | 0
VCDCHMADM [5T4 9-mer peptide 149] | 0
IRVFLDNNP [5T4 9-mer peptide 144] | 0
LTHLESLHL [5T4 9-mer peptide 129] | 0
ALKVLHNGT [5T4 9-mer peptide 135] | 0
SLVSLTYVS [5T4 9-mer peptide 123] | 0
NGTLAELQG [5T4 9-mer peptide 138] | 0
MVTWLKETE [5T4 9-mer peptide 153] | 0
AELQGLPHI [5T4 9-mer peptide 140] | 0
ADMVTWLKE [5T4 9-mer peptide 152] | 0
LSNNSLVSL [5T4 9-mer peptide 121] | 0
TLAELQGLP [5T4 9-mer peptide 139] | 0
KVLHNGTLA [5T4 9-mer peptide 136] | 0
NNPWVCDCH [5T4 9-mer peptide 147] | 0
NNSLVSLTY [5T4 9-mer peptide 122] | 0
LDNNPWVCD [5T4 9-mer peptide 146] | 0
LEDNALKVL [5T4 9-mer peptide 133] | 0
PWVCDCHMA [5T4 9-mer peptide 148] | 0
ESLHLEDNA [5T4 9-mer peptide 131] | 0
VSLTYVSFR [5T4 9-mer peptide 124] | 0
DNALKVLHN [5T4 9-mer peptide 134] | 0
PHIRVFLDN [5T4 9-mer peptide 143] | 0
DCHMADMVT [5T4 9-mer peptide 150] | 0

Molecular target: T8, MHC class I allele B*0702 monomer (human, biotinylated, bound to streptavidin-coated plate)
T8 construct: also called B7; HLA-B7
Experiment: iTopia, multiparametric iScore
Experimental: as §2, §3

Binder | iScore
RNLTHLESL [5T4 9-mer peptide 128] | 0
LDLSNNSLV [5T4 9-mer peptide 120] | 0
HLESLHLED (also called HLESLHLED) [5T4 9-mer peptide 130] | 0
LQGLPHIRV [5T4 9-mer peptide 141] | 0
LHNGTLAEL [5T4 9-mer peptide 137] | 0.026
LHLEDNALK [5T4 9-mer peptide 132] | 0
VFLDNNPWV [5T4 9-mer peptide 145] | 0
SFRNLTHLE [5T4 9-mer peptide 127] | 0
VCDCHMADM [5T4 9-mer peptide 149] | 0
IRVFLDNNP [5T4 9-mer peptide 144] | 0
LTHLESLHL [5T4 9-mer peptide 129] | 0
ALKVLHNGT [5T4 9-mer peptide 135] | 0
SLVSLTYVS [5T4 9-mer peptide 123] | 0
NGTLAELQG [5T4 9-mer peptide 138] | 0
MVTWLKETE [5T4 9-mer peptide 153] | 0
AELQGLPHI [5T4 9-mer peptide 140] | 0
ADMVTWLKE [5T4 9-mer peptide 152] | 0
LSNNSLVSL [5T4 9-mer peptide 121] | 0.012
TLAELQGLP [5T4 9-mer peptide 139] | 0
KVLHNGTLA [5T4 9-mer peptide 136] | 0
NNPWVCDCH [5T4 9-mer peptide 147] | 0
NNSLVSLTY [5T4 9-mer peptide 122] | 0
LDNNPWVCD [5T4 9-mer peptide 146] | 0
LEDNALKVL [5T4 9-mer peptide 133] | 0
PWVCDCHMA [5T4 9-mer peptide 148] | 0
ESLHLEDNA [5T4 9-mer peptide 131] | 0
VSLTYVSFR [5T4 9-mer peptide 124] | 0
DNALKVLHN [5T4 9-mer peptide 134] | 0
PHIRVFLDN [5T4 9-mer peptide 143] | 0
DCHMADMVT [5T4 9-mer peptide 150] | 0
